# From patent US20240034802A1
# Tests used:
# Assay in all cases: flow cytometry, protein L-biotin then streptavidin-PE on CAR T cells
# [1] = biological target: tandem CD20/CD19 chimeric antigen receptor, Construct CAR 2019 (Leader-CD20 VH (GGGGS)3-CD20 VL-(GGGGS)5-CD19 VL-Whitlow linker-CD19 VH CD8 hinge+TM-4-1BB-CD3z)
# [2] = biological target: CARs on the transduced T cell surface
# [3] = biological target: tandem CD19/CD20 chimeric antigen receptor, Construct CAR 1920 (Leader-CD19 VL-Whitlow linker CD19 VH (GGGGS)-5 CD20 VH (GGGGS)-3 CD20 VL CD8 hinge+TM-4-1BB-CD3z)
# Chain of tandem CD19/CD20 chimeric antigen receptor, Construct CAR 1920 (Leader-CD19 VL-Whitlow linker CD19 VH (GGGGS)-5 CD20 VH (GGGGS)-3 CD20 VL CD8 hinge+TM-4-1BB-CD3z) (chain, as listed by the source mutant): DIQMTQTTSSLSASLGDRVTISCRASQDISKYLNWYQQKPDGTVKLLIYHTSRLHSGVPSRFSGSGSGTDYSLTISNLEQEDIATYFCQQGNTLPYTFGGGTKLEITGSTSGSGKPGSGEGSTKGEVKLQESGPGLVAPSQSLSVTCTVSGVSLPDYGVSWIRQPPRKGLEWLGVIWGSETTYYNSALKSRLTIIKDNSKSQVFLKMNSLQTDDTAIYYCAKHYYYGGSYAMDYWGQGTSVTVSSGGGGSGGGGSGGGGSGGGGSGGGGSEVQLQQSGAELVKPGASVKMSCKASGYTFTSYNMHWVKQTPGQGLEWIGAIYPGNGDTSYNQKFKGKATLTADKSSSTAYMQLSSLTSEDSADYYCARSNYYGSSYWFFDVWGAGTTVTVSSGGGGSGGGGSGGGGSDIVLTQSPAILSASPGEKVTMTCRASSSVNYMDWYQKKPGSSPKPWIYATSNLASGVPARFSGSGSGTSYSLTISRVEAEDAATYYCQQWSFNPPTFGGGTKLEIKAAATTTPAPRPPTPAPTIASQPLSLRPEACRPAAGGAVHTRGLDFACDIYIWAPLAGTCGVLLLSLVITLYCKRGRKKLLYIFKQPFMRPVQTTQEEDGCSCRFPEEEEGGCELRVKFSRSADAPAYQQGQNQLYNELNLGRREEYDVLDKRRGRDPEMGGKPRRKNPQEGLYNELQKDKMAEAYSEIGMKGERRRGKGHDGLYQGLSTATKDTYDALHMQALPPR
# Chain of tandem CD20/CD19 chimeric antigen receptor, Construct CAR 2019 (Leader-CD20 VH (GGGGS)3-CD20 VL-(GGGGS)5-CD19 VL-Whitlow linker-CD19 VH CD8 hinge+TM-4-1BB-CD3z) (chain, as listed by the source mutant): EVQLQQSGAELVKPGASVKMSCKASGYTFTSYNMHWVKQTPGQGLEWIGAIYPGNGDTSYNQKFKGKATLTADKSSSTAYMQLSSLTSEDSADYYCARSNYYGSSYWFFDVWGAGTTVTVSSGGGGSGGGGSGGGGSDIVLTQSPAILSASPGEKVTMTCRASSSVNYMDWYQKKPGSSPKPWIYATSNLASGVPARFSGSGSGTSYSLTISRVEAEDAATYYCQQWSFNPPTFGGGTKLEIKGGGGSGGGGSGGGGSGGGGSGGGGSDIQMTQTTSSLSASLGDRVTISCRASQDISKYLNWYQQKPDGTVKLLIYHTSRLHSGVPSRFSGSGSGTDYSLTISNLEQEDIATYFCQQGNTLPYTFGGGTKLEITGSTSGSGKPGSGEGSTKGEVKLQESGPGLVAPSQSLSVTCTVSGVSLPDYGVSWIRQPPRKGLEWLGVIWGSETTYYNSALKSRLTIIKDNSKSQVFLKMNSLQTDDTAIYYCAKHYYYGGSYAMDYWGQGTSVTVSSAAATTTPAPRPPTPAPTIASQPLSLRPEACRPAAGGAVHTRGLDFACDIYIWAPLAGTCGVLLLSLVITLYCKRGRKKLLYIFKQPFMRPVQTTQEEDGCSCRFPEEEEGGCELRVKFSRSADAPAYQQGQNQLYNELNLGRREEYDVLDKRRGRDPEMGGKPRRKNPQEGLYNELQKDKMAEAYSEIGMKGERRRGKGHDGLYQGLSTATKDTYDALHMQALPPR
substance,measurement,setting,value
protein L-biotin conjugate (GenScript),percent of transduced T cells stained,[1],89%
same,percent of transduced T cells stained (CAR surface expression),[2],61 to 93%
same,percent of transduced T cells stained,[3],85%
